Assay results published in US20250313631A1 (HUMMINGBIRD BIOSCIENCE PTE, published 2025).
Read-outs that look alike come from different tables or passages of the source.

T1: mouse FcRn (His-tagged, Sino Biological CT009-H08H) (mouse, UniProt Q61559 22-297)
T1 construct: also called mFcRn
T1 sequence (looked up): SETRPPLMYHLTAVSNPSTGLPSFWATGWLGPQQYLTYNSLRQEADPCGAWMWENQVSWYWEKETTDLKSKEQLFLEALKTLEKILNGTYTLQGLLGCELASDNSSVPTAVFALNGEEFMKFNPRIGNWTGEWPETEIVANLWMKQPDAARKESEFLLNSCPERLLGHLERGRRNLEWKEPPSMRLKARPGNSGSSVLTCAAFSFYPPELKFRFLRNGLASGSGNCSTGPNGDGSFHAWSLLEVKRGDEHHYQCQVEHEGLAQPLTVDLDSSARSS

T2: mouse FcγRIV (His-tagged, Sino Biological 50036-M08H) (mouse, UniProt A0A0B4J1G0 21-203)
T2 construct: also called mFcγRIV; not shown: the histidine tag (and any linker) of the Sino Biological construct 50036-M08H
T2 sequence: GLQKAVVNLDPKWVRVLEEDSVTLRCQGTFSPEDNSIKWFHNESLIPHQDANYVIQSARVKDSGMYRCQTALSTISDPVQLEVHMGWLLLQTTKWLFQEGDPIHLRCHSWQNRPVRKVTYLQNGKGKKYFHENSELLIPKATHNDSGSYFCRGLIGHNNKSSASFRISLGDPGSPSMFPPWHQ

T3: mouse FcγRIII (His-tagged, Sino Biological 50326-M08H) (mouse, UniProt P08508 31-215)
T3 construct: also called mFcγRIII
T3 sequence (looked up): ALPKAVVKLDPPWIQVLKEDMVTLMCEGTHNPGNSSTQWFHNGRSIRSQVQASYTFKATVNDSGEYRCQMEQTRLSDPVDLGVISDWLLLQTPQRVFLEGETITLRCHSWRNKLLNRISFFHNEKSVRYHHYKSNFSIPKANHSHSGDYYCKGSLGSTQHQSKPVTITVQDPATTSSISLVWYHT

T4: mouse FcγRIIb (His-tagged, Sino Biological 50030-M08H) (mouse, UniProt P08101 30-217)
T4 construct: also called mFcγRIIb
T4 sequence (looked up): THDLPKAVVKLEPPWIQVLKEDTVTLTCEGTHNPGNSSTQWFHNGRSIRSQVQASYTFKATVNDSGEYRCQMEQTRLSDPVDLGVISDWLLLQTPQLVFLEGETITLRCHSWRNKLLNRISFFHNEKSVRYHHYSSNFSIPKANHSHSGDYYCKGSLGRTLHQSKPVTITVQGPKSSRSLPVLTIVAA


Experiments:
[1] = target: T1, mouse FcRn (His-tagged, Sino Biological …); test: BLI summary table, mFcRn, pH 5.8
[2] = target: T1, mouse FcRn (His-tagged, Sino Biological …); test: BLI summary table, mFcRn, pH 5.8; remark: listed apart in the source
[3] = target: T1, mouse FcRn (His-tagged, Sino Biological …); test: BLI summary table, mFcRn, pH 5.8; remark: listed apart in the source
[4] = target: T2, mouse FcγRIV (His-tagged, Sino …); test: BLI (Octet QK384): His-tagged receptor on anti-Penta-HIS biosensor, antibody as analyte, PBS pH 7.2
[5] = target: T3, mouse FcγRIII (His-tagged, Sino …); test: as above
[6] = target: T4, mouse FcγRIIb (His-tagged, Sino …); test: as above
[7] = target: T1, mouse FcRn (His-tagged, Sino Biological …); test: BLI (Octet QK384): His-tagged mFcRn on anti-Penta-HIS biosensor, antibody as analyte, PBS pH 5.8, global 1:1 fit
[8] = target: T2, mouse FcγRIV (His-tagged, Sino …); test: BLI summary table, mFcgRIV, pH 7.2
[9] = target: T4, mouse FcγRIIb (His-tagged, Sino …); test: BLI (Octet QK384): His-tagged receptor on anti-Penta-HIS biosensor, antibody as analyte, PBS pH 7.2; remark: listed apart in the source
[10] = target: T1, mouse FcRn (His-tagged, Sino Biological …); test: BLI (Octet QK384): His-tagged mFcRn on anti-Penta-HIS biosensor, antibody as analyte, PBS pH 5.8, global 1:1 fit; remark: listed apart in the source
[11] = target: T2, mouse FcγRIV (His-tagged, Sino …); test: BLI (Octet QK384): His-tagged receptor on anti-Penta-HIS biosensor, antibody as analyte, PBS pH 7.2; kon = ND and KD = ND are printed beside it

| kon [1] [M⁻¹ s⁻¹] | koff [2] [s⁻¹] | Kd [3] [nM] | binding result [4] | binding result [5] | binding result [6] | Kd [7] [nM] | koff [7] [s⁻¹] | kon [7] [M⁻¹ s⁻¹] | koff [8] [s⁻¹] | binding result [9] | Kd [10] [nM] | koff [10] [s⁻¹] | kon [10] [M⁻¹ s⁻¹] | koff [11] [s⁻¹] | Binder |
| --- | --- | --- | --- | --- | --- | --- | --- | --- | --- | --- | --- | --- | --- | --- | --- |
| 270000 | 0.0097 | 35.8 | no binding | no binding | no binding | 35.8 | 0.0097 | 270000 | – | – | – | – | – | – | 4M2-C12 mIgG2a LALA PG (antibody) heavy: EVKLVESGPGLVKPSQSLSLTCTVTGYSITSDYAWNWIRQFPGNKLEWMGYITYSGNISYNPSLRSRISITRDTSKNQFFLQLNSVTPEDTATYSCARSLYYPWYFDVWGAGTTVTVSSAKTTAPSVYPLAPVCGDTTGSSVTLGCLVKGYFPEPVTLTWNSGSLSSGVHTFPAVLQSDLYTLSSSVTVTSSTWPSQSITCNVAHPASSTKVDKKIEPRGPTIKPCPPCKCPAPNAAGGPSVFIFPPKIKDVLMISLSPIVTCVVVDVSEDDPDVQISWFVNNVEVHTAQTQTHREDYNSTLRVVSALPIQHQDWMSGKEFKCKVNNKDLGAPIERTISKPKGSVRAPQVYVLPPPEEEMTKKQVTLTCMVTDFMPEDIYVEWTNNGKTELNYKNTEPVLDSDGSYFMYSKLRVEKKNWVERNSYSCSVVHEGLHNHHTTKSFSRTPGK light: DIVITQTPAILSTSPGEKVTMTCRASSSVGYIHWYQQKPGSSPKPWIYATSNLASGVPARFSGSGSGTSNSLTITRVEAEDAATYYCQQWSSYPPITFGGGTKLEVKRADAAPTVSIFPPSSEQLTSGGASVVCFLNNFYPKDINVKWKIDGSERQNGVLNSWTDQDSKDSTYSMSSTLTLTKDEYERHNSYTCEATHKTSTSPIVKSFNRNEC |
| 180000 | 0.0075 | 42.5 | – | – | – | – | – | – | 0.348 | no binding | 42.5 | 0.0075 | 180000 | 0.348 | 4M2-C12 mIgG2a NQ (antibody) heavy chain: EVKLVESGPGLVKPSQSLSLTCTVTGYSITSDYAWNWIRQFPGNKLEWMGYITYSGNISYNPSLRSRISITRDTSKNQFFLQLNSVTPEDTATYSCARSLYYPWYFDVWGAGTTVTVSSAKTTAPSVYPLAPVCGDTTGSSVTLGCLVKGYFPEPVTLTWNSGSLSSGVHTFPAVLQSDLYTLSSSVTVTSSTWPSQSITCNVAHPASSTKVDKKIEPRGPTIKPCPPCKCPAPNLLGGPSVFIFPPKIKDVLMISLSPIVTCVVVDVSEDDPDVQISWFVNNVEVHTAQTQTHREDYQSTLRVVSALPIQHQDWMSGKEFKCKVNNKDLPAPIERTISKPKGSVRAPQVYVLPPPEEEMTKKQVTLTCMVTDFMPEDIYVEWTNNGKTELNYKNTEPVLDSDGSYFMYSKLRVEKKNWVERNSYSCSVVHEGLHNHHTTKSFSRTPGK light chain: DIVITQTPAILSTSPGEKVTMTCRASSSVGYIHWYQQKPGSSPKPWIYATSNLASGVPARFSGSGSGTSNSLTITRVEAEDAATYYCQQWSSYPPITFGGGTKLEVKRADAAPTVSIFPPSSEQLTSGGASVVCFLNNFYPKDINVKWKIDGSERQNGVLNSWTDQDSKDSTYSMSSTLTLTKDEYERHNSYTCEATHKTSTSPIVKSFNRNEC |
